Assay results from patent US20120076782A1 (MorphoSys, published 2012).
Like-named read-outs stand apart in the source and are kept apart here. Each block holds one molecule with its values, some of them ahead of it.

Columns and labels:
[1] = target: CD20 on cell lines (UniProt P11836); test: cell-based or functional assay
[2] = target: T1, human CD38 on cells or tissue (human, UniProt P28907 1-300); test: cell-based or functional assay
[3] = target: T1, human CD38 on cells or tissue; test: FACS Scatchard, IgG1 on RPMI8226 MM cells; mean of at least 2 determinations
[4] = target: T1, human CD38 on cells or tissue
[5] = target: T1, human CD38 on cells or tissue; test: cell-based or functional assay; remark: listed apart in the source
[6] = target: T2, bovine serum albumine (bovine, UniProt P02769 25-607); test: ELISA; antigen coated at 5 µg/ml, anti-human Fab alkaline phosphatase conjugate, fluorescence Ex/Em 430/535 nm
T2 construct: Control antigen coated on ELISA wells; also called BSA

[7] = target: T3, hCD38 Fc fusion protein (aa 45-273) (human, UniProt P28907 45-273); test: as above
T3 construct: Making of this construct is not described; also called C-terminally deleted format; not shown: Fc part (not described for this construct)

[8] = target: T4, hCD38 Fc fusion protein (aa 45-300) (human, UniProt P28907 45-300); test: SPR (Biacore 3000), Fab over directly immobilized CD38-Fc fusion protein; mean of at least 2 determinations
T4 construct: produced in HEK293; also called full-length hCD38 Fc-fusion protein; soluble CD38-Fc

[9] = target: T1, human CD38 on cells or tissue; test: cell-based or functional assay; remark: listed apart in the source
[10] = target: T1, human CD38 on cells or tissue; test: cell-based or functional assay; remark: listed apart in the source
[11] = target: T1, human CD38 on cells or tissue; test: cell-based or functional assay; remark: listed apart in the source
[12] = target: T2, bovine serum albumine; test: ELISA; antigen coated at 5 µg/ml, anti-murine Fab alkaline phosphatase conjugate, fluorescence Ex/Em 430/535 nm
[13] = target: T3, hCD38 Fc fusion protein (aa 45-273); test: as above
[14] = target: T5, cynomolgus monkey CD38 on cells or tissue (cynomolgus monkey, UniProt Q5VAN0 1-301); test: FACS on lymphocytes; IHC on spleen, lymph-nodes
T5 construct: whole, on cells
T5 sequence (Q5VAN0 whole entry): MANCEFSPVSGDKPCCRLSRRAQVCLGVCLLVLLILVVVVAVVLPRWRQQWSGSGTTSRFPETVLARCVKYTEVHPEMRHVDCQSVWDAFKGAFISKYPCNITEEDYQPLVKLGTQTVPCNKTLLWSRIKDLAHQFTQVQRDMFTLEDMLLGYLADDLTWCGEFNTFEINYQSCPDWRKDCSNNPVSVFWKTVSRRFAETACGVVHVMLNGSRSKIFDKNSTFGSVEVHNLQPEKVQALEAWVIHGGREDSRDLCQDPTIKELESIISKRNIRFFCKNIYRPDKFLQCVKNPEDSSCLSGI

T2 sequence (P02769 25-607 limits assumed): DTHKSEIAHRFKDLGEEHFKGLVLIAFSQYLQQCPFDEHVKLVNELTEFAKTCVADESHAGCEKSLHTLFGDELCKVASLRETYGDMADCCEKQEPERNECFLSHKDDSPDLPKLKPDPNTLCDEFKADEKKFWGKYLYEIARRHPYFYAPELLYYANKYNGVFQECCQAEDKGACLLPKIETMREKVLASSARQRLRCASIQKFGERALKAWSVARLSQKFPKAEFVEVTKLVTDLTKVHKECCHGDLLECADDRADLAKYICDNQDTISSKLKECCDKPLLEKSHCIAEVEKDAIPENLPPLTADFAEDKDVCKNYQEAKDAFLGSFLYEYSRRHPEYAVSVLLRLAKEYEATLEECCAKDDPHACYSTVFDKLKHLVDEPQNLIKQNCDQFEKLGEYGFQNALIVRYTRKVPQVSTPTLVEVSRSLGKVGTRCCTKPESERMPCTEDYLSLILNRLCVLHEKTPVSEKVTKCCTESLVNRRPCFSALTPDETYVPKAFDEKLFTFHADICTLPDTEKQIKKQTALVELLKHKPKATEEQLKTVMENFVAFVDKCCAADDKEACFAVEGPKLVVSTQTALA
Chain of CD20 on cell lines (P11836 whole entry): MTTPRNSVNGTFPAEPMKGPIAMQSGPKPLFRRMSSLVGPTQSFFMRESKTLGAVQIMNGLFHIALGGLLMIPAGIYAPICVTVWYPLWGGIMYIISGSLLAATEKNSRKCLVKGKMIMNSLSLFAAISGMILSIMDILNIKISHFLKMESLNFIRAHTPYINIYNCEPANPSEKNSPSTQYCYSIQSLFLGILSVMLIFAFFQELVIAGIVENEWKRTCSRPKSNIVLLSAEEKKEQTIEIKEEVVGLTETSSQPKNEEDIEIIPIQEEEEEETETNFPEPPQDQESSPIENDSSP

ADCC EC50 [nM], LP-1 target cells [2]: 5.23 nM | ADCC EC50 [nM], RPMI8226 target cells [2]: 4.1 nM | CDC EC50 [nM], CHO-transfectants [2]: 9.3 nM | Kd [3]: 8.28 nM
Molecule: chimeric OKT10 (antibody)
max. specific killing in ADCC, NCI-H929 cells (MM), E:T 30:1, 5 µg/ml; column PC [4]: 54%

ADCC EC50 [nM], LP-1 target cells [5]: 1 nM | ADCC EC50 [nM], RPMI8226 target cells [5]: 0.28 nM | CDC EC50 [nM], CHO-transfectants (mean from 2 determinations) [5]: 10.9 nM | CDC EC50 [nM], CHO-transfectants (mean from 4 determinations) [5]: 13.6 nM | binding result [6]: no binding (tested: 10 µg/ml) | binding result [7]: no binding (tested: 10 µg/ml) | Kd [3]: 6.31 nM
B1: MOR03100 human IgG1 (antibody, V domains shown)
VH: QVQLVESGGGLVQPGGSLRLSCAASGFTFSSNGMSWVRQAPGKGLEWVSNISYLSSSTYYADSVKGRFTISRDNSKNTLYLQMNSLRAEDTAVYYCARFYGYFNYADVWGQGTLVTVSS
VL: DIELTQPPSVSVAPGQTARISCSGDNIGHYYASWYQQKPGQAPVLVIYRDNDRPSGIPERFSGSNSGNTATLTISGTQAEDEADYYCQSYDYLHDFVFGGGTKLTVLG
notes: also called LAC 3100; MAb#4

Kd [8]: 10 nM
B2: MOR03100 Fab (Fab, V domains shown)
VH: B1 VH
VL: B1 VL
notes: also called LAC 3100; antibody no; 3100

binding result [12]: no binding (tested: 10 µg/ml) | binding result [13]: no binding (tested: 10 µg/ml)
B7: MOR03079 human-mouse chimeric IgG2a (antibody, V domains shown)
VH: QVQLVESGGGLVQPGGSLRLSCAASGFTFSNYGMHWVRQAPGKGLEWVSNIRSDGSWTYYADSVKGRFTISRDNSKNTLYLQMNSLRAEDTAVYYCARRYWSKSHASVTDYWGQGTLVTVSS
VL: DIQMTQSPSSLSASVGDRVTITCRASQDISAFLNWYQQKPGKAPKLLIYKVSNLQSGVPSRFSGSGSGTDFTLTISSLQPEDFATYYCQQAYSGSITFGQGTKVEIKR
notes: Chimeric IgG2a: human variable regions of MOR03079 fused to murine Fc gamma 2a constant regions; also called MAb#2 (chimeric: human variable domaine/murine Fc 2a); mu03079

ADCC EC50 [nM], LP-1 target cells [5]: 0.17 nM | ADCC EC50 [nM], RPMI8226 target cells [5]: 0.05 nM | CDC EC50 [nM], CHO-transfectants (mean from 2 determinations) [5]: 3.2 nM | CDC EC50 [nM], CHO-transfectants (mean from 3 determinations) [5]: 2.93 nM | binding result [6]: no binding (tested: 10 µg/ml) | binding result [7]: no binding (tested: 10 µg/ml) | Kd [3]: 0.47 nM
B8: MOR03080 human IgG1 (antibody, V domains shown)
VH: QVQLVESGGGLVQPGGSLRLSCAASGFTFSSYGMHWVRQAPGKGLEWVSNIYSDGSNTFYADSVKGRFTISRDNSKNTLYLQMNSLRAEDTAVYYCARNMYRWPFHYFFDYWGQGTLVTVSS
VL: DIELTQPPSVSVAPGQTARISCSGDNIGNKYVSWYQQKPGQAPVVVIYGDNNRPSGIPERFSGSNSGNTATLTISGTQAEDEADYYCSSYDSSYFVFGGGTKLTVLG
notes: also called MAb#3
MM-samples (max. spec. Killing), 4 hrs incubation [10]: 4% | Namalwa (max. spec. Killing), o/n incubation [10]: < 1% | Raji (max. spec. killing), o/n incubation [10]: 4%

binding result [12]: no binding (tested: 10 µg/ml) | binding result [13]: no binding (tested: 10 µg/ml) | binding result [14]: binds
B9: MOR03080 human-mouse chimeric IgG2a (antibody, V domains shown)
VH: B8 VH
VL: B8 VL
notes: Chimeric IgG2a: human variable regions of MOR03080 and murine constant regions; also called MAb#3 (chimeric: human variable domaine/murine Fc 2a); mu03080

Second part, the molecule before the results:

Molecule: Rituximab (antibody)
Namalwa (max. spec. Killing), o/n incubation [1]: < 1% | Raji (max. spec. killing), o/n incubation [1]: 9%

B3: MOR03077 human IgG1 (antibody, V domains shown)
VH: QVQLVQSGAEVKKPGASVKVSCKASGYTFTSYSINWVRQAPGQGLEWMGYIDPNRGNTNYAQKFQGRVTMTRDTSISTAYMELSSLRSEDTAVYYCAREYIYFIHGMLDFWGQGTLVTVSS
VL: DIVMTQSPLSLPVTPGEPASISCRSSQSLLFIDGNNYLNWYLQKPGQSPQLLIYLGSNRASGVPDRFSGSGSGTDFTLKISRVEAEDVGVYYCQQYSSKSATFGQGTKVEIKR
notes: also called MAb#1
ADCC EC50 values in [nM], MM Samples (purified primary MM-cells) [9]: 0.08 nM | ADCC EC50 [nM], LP-1 target cells [5]: 0.6 nM | ADCC EC50 [nM], RPMI8226 target cells [5]: 0.08 nM | CDC EC50 [nM], CHO-transfectants (mean from 2 determinations) [5]: 0.8 nM | CDC EC50 [nM], CHO-transfectants (mean from 3 determinations) [5]: 0.94 nM | binding result [6]: no binding (tested: 10 µg/ml) | binding result [7]: no binding (tested: 10 µg/ml) | MM-samples (max. spec. Killing), 4 hrs incubation [10]: 21% | Namalwa (max. spec. Killing), o/n incubation [10]: 11% | Raji (max. spec. killing), o/n incubation [10]: 21% | Kd [3]: 0.89 nM | CDC EC50, LP-1 cells [11]: 5.6 nM | CDC EC50 on hCD38-transfectants, fold better than reference antibody chOKT10 [11]: 3 fold

B4: MOR03077 Fab (Fab, V domains shown)
VH: B3 VH
VL: B3 VL
notes: also called antibody no
Kd [8]: 56 nM

B5: MOR03079 human IgG1 (antibody, V domains shown)
VH: B7 VH
VL: B7 VL
notes: also called MAb#2
ADCC EC50 [nM], LP-1 target cells [5]: 0.09 nM | ADCC EC50 [nM], RPMI8226 target cells [5]: 0.04 nM | CDC EC50 [nM], CHO-transfectants [5]: 0.41 nM | binding result [6]: no binding (tested: 10 µg/ml) | binding result [7]: no binding (tested: 10 µg/ml) | MM-samples (max. spec. Killing), 4 hrs incubation [10]: 24% | Namalwa (EC50), killing by cross-linking [10]: 0.08 nM | Namalwa (max. spec. Killing), o/n incubation [10]: 18% | Raji (EC50), killing by cross-linking [10]: 0.08 nM | Raji (max. spec. killing), o/n incubation [10]: 21% | Kd [3]: 0.6 nM | CDC EC50, LP-1 cells [11]: 0.55 nM

B6: MOR03079 Fab (Fab, V domains shown)
VH: B7 VH
VL: B7 VL
notes: also called antibody no
Kd [8]: 2.4 nM

B10: MOR03080 Fab (Fab, V domains shown)
VH: B8 VH
VL: B8 VL
notes: also called antibody no
Kd [8]: 27.5 nM
